Data as given in patent US20190077876A1 (AbbVie / Abbott, published 2019).
Substitutions are numbered along the chain they refer to.

B1: SC27.105 mouse monoclonal anti-CLDN antibody (antibody, V domains shown)
VH: EVQLQQSGPELVKPGASVKISCKASGYSFTGYYMNWVKQSPEKSLEWIGEINPSTGSTTYNQKFKAKATLTVDKSSSTAYMQLKSLTSEDSAVYYCARRDYYYGSGFYAMDYWGQGTSVTVSS
VL: DVQMTQSPSSLSASLGERVSLTCQASQSVSNNLNWYQQTPGKAPRLLIYGASKLEDGVSSRFSGTGYGTDFTFTISSLEEEDVATYFCLQHRYLWTFGGGTKLEIK
B2: SC27.204 mouse monoclonal anti-CLDN antibody (antibody, V domains shown)
VH: EVKVLESGGGLVQPGGSLKLSCAASGFDFSRYWMSWVRQAPGKGLEWIGEINPDSSTINYTPSLKAKFIISRDNAKNTLYLQMSKVRSEDTALYYCTGPAYWGQGTLVTVSA
VL: DIVMTQSQKFMSTSVGDRVSVACKAGQNVGTSVAWYQQKPGHSPKSLIYSASYRYSGVPNRFTGSGSGTDFTLTISNVQSEDLADYFCQQYITYPYTFGGGTKLEII
B3: SC27.201 mouse monoclonal anti-CLDN antibody (antibody, V domains shown)
VL: DIQMTQSSSSFSVSLGDRVTITCKASEDIYNRLAWYQQKPGNAPRLLISGATSLEAGVPSGFSGSGSGKDYTLSITSLQTEDVATYYCQQYWSTPPTFGGGTKLELK
V domain: EVQLQQSGPELVKPGASVKISCKTSGYTFTENIRHWVKQSRGKSLEWIGTINPNNGETRYNQKFKGKATLTVDKSSSTAYMELRSLTSEDSAVYYCTRGITKSPYGMDYWGQGTSITVSS
B4: SC27.104 mouse monoclonal anti-CLDN antibody (antibody, V domains shown)
VH: EVQLQQSGPELVKPGASVKISCKTSGYTFTEYTVHWVKQSHGKSLEWIGGVYPKNGDTTYNQKFRGKATLTVDKSSNTAYMELRSLTSEDSAVYYCTGKDGYDGFAYWGQGTLVTVSA
VL: B3 VL with A56T, G61R, T94N, L106I
B5: SC27.106 (antibody, V domains shown)
VH: EVQLQQSGPELVKPGASVKISCKTSGYTFTEYTMHWVKQSHGKSLEWIGGINPNNGGTNYNQKFKGKATLTVDKSSSTAYMELRSLTSEDSAVYYCARRLITYYAMDYWGQGTSVTVSS
VL: B3 VL with S49C, A56T, G61R, P96L, G100A
notes: also called SC27.106 mouse monoclonal anti-CLDN antibody
B6: SC27.203 (antibody, V domains shown)
VH: B3 V domain with R34I, R41H, T50G, N54I, E57G, R59S, T97A, K102T, G106A, I116V
VL: B3 VL with K39N, A43T, I48M, A56T, G61R, T80I, A84S, K103R, L106I
notes: also called SC27.203 mouse monoclonal anti-CLDN antibody

Target: T1, human CLDN6 protein (human, UniProt P56747 1-220)
T1 sequence (looked up): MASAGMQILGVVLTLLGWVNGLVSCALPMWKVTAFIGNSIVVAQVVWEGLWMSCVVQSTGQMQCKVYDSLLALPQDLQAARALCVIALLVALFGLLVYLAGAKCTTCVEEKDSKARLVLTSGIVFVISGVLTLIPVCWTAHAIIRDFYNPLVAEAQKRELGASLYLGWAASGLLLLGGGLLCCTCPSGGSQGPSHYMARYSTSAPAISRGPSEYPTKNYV
Assay: cell-based or functional assay

Point of comparison: B1, “apparent IC50 of killing of HEK-293T cells overexpressing hCLDN6; antibody titrated 0.15 to 1000 nM with anti-mouse IgG Fab-saporin, CellTiter-Glo” value 235 nM. Against it:
- B2 — 9.3-fold lower, 25.2 nM
- B3 — 4.9-fold lower, 48.2 nM
- B4 — within 1.5-fold, 284 nM

Target: T2, human CLDN4 protein (human, UniProt O14493 1-209)
T2 sequence (looked up): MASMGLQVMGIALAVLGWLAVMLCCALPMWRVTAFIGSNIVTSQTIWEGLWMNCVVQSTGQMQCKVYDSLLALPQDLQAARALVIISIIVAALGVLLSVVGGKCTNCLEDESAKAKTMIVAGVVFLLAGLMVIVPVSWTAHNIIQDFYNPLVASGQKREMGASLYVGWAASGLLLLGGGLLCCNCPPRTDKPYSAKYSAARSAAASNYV
Assay: cell-based or functional assay

Point of comparison: B4, “apparent IC50 of killing of HEK-293T cells overexpressing hCLDN4; antibody titrated 0.15 to 1000 nM with anti-mouse IgG Fab-saporin, CellTiter-Glo” value 969 nM. Against it:
- B3 — 14-fold lower, 69.7 nM

Target: T3, human CLDN9 protein (human, UniProt O95484 1-217)
T3 sequence (looked up): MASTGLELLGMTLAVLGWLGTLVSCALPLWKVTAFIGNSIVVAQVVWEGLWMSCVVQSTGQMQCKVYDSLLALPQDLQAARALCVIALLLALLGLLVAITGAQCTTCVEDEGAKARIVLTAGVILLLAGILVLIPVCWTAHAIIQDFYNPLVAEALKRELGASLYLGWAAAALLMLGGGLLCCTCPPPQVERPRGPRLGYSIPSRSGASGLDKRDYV
Assay: cell-based or functional assay

Point of comparison: B3, “apparent IC50 of killing of HEK-293T cells overexpressing hCLDN9; antibody titrated 0.15 to 1000 nM with anti-mouse IgG Fab-saporin, CellTiter-Glo” value 155 nM. Against it:
- B2 — 9.2-fold lower, 16.9 nM

Target: T2, human CLDN4 protein
Assay: flow cytometry on cells overexpressing human CLDN4; Alexa 647 anti-mouse secondary; single point

B1: no binding (tested: 10 µg/mL).
B2: no binding (tested: 10 µg/mL).

Target: T3, human CLDN9 protein
Assay: flow cytometry on cells overexpressing human CLDN9; Alexa 647 anti-mouse secondary; single point

B1: no binding (tested: 10 µg/mL).

Target: T2, human CLDN4 protein
Assay: flow cytometry on cells overexpressing human CLDN4; 10 µg/mL purified antibody, Alexa 647 anti-mouse secondary; single point

Point of comparison: B5, MFI 1990. Against it:
- B1 — lower, 69
- B2 — lower, 79
- B3 — higher, 23100
- B4 — higher, 22600
- B6 — higher, 2980

Target: T1, human CLDN6 protein
Assay: flow cytometry on cells overexpressing human CLDN6; 10 µg/mL purified antibody, Alexa 647 anti-mouse secondary; single point

Point of comparison: B1, MFI 83000. Against it:
- B2 — higher, 106000
- B3 — lower, 29900
- B5 — lower, 55800
- B4 — lower, 39200
- B6 — lower, 47400

Target: T3, human CLDN9 protein
Assay: flow cytometry on cells overexpressing human CLDN9; 10 µg/mL purified antibody, Alexa 647 anti-mouse secondary; single point

Point of comparison: B4, MFI 7230. Against it:
- B1 — lower, 80
- B2 — higher, 23000
- B3 — lower, 7100
- B5 — lower, 595
- B6 — lower, 587
